Consider one molecule from paper PMC11063404, “Classical and novel properties of Holliday junction resolvase SynRuvC from Synechocystis sp. PCC6803”.

For the data set, the target named is T1, SynRuvC E75A (Synechocystis sp. PCC6803, UniProt Q55506 1-167, E75A).
T1 sequence: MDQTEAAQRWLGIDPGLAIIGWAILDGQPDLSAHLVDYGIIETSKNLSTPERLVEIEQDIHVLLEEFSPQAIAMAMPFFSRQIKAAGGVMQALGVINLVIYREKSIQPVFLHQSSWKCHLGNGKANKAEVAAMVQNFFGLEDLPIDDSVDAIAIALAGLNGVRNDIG
As to the kind of experiment: EMSA; EMSA: 50 nM 5'-FAM DNA, 0-2000 nM protein, 20 mM HEPES pH 7.5, 50 mM NaCl, 1 mM DTT, 10% DMSO, 1% glycerol, no metal listed, 37 C 60 min; 5% native PAGE in 1x TAE. To be noted: protein: recombinant; tags: His-SUMO N-terminal, removed (purified as WT); chain copies: 2; label: 5'-FAM on one strand; four-way junction, 13 bp homologous core. (In EMSA bound probe runs differently from free probe, usually more slowly.)

B1: 4Jh (structured_DNA)
DNA 1: GCAATTCGATCGTTGACATCTCGCGTGCTCGGTCAATCGGCAGATGCGGAGTGAAGTTCCAACGTTCGGC
DNA 2: CCTGCAGGATGGTAGGACGGCCTCGCAATCCCGATTGACCGAGCACGCGAGATGTCAACGATCGAATTGC
DNA 3: GCCGAACGTTGGAACTTCACTCCGCATCTGCCGATTGACCGAGTGGCGTGTTTCTGGTGGTTCCTAGGTC
DNA 4: GACCTAGGAACCACCAGAAACACGCCACTCGGTCAATCGGGATTGCGAGGCCGTCCTACCATCCTGCAGG
Take B1: the binding result is “no binding”.
